From US20050123546A1 (Hoffmann-La Roche, published 2005)

These binders were tested against T1, human CD20 (human, UniProt P11836 1-297) (assay: flow cytometry on Raji cells).
T1 construct: whole, on cells; also called human CD20 antigen; Bp35
T1 sequence (looked up): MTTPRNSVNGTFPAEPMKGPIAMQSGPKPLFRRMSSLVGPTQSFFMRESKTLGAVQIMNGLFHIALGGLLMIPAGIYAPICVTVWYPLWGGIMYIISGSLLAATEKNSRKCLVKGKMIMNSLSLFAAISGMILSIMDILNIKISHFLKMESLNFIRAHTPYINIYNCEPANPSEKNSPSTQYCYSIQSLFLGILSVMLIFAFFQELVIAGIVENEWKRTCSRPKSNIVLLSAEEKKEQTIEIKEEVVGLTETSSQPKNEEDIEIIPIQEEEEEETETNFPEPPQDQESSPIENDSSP
Description: 500.000 in 180 μl FACS buffer (PBS containing 2% FCS and 5 mM EDTA) were transferred to 5 ml polystyrene tubes and 20 ul 10 fold concentrated anti-CD20 antibody samples (1-5000 ng/ml final concentration) or PBS only were added and the tubes were incubated at 4° C. for 30 min. Subsequently, samples were washed twice with FACS buffer and pelleted at 300×g for 3 min. Supernatant was aspirated off and cells were taken up in 100 μl FACS buffer and 1 μl anti-Fc-specific F(ab′)₂—FITC fragments (Jackson Immuno Research Laboratories, USA) was added and the tubes were incubated at 4° C. for 30 min. Samples were washed twice with FACS buffer and taken up in 500 μl of FACS buffer containing 0.5 μg/ml PI for analysis by Flow Cytometry. Binding was determined by plotting the geometric mean fluorescence against the antibody concentrations.

| Binder | binding result | binding intensity/stoichiometry compared to B-Ly1 |
| --- | --- | --- |
| B-HH1 complexed with the humanized B-Ly1 light chain (KV1) (antibody, human IgG1, V domains shown, also called BHH1-KV1) VH: QVQLVQSGAEVKKPGSSVKVSCKASGYTFSYSWMSWVRQAPGQGLEWMGRIFPGDGDTDYAQKFQGRVTITADKSTSTAYMELSSLRSEDTAVYYCARNVFDGYWLVYWGQGTLVTVSS VL: DIVMTQTPLSLPVTPGEPASISCRSSKSLLHSNGITYLYWYLQKPGQSPQLLIYQMSNLVSGVPDRFSGSGSGTDFTLKISRVEAEDVGVYYCAQNLELPYTFGGGTKVEIKR | binds | – |
| B-HH3 complexed with the humanized B-Ly1 light chain (KV1) (antibody, human IgG1, V domains shown, also called BHH3-KV1) VH: QVQLVQSGAEVKKPGSSVKVSCKASGYAFSYSWMNWVRQAPGQGLEWMGRIFPGDGDTDYNGKFKGRVTITADKSTSTAYMELSSLRSEDTAVYLCARNVFDGYWLVYWGQGTLVTVSS VL: DIVMTQTPLSLPVTPGEPASISCRSSKSLLHSNGITYLYWYLQKPGQSPQLLIYQMSNLVSGVPDRFSGSGSGTDFTLKISRVEAEDVGVYYCAQNLELPYTFGGGTKVEIKR | binds | – |
| BHH2-KV1 humanized IgG1 B-Ly1 anti-human CD20 antibody (non-glycoengineered) (antibody, V domains shown, also called BHH2-KV1-wt) VH: QVQLVQSGAEVKKPGSSVKVSCKASGYAFSYSWMNWVRQAPGQGLEWMGRIFPGDGDTDYNGKFKGRVTITADKSTSTAYMELSSLRSEDTAVYYCARNVFDGYWLVYWGQGTLVTVSS VL: DIVMTQTPLSLPVTPGEPASISCRSSKSLLHSNGITYLYWYLQKPGQSPQLLIYQMSNLVSGVPDRFSGSGSGTDFTLKISRVEAEDVGVYYCAQNLELPYTFGGGTKVEIKR | binds | – |
| chimeric B-Ly1 antibody chB-Ly1 (antibody, V domains shown, also called parental antibody B-Ly1; copies: 2 + 2) VH: EVKLQQSGPELVKPGASVKISCKASGYAFSYSWMNWVKLRPGQGLEWIGRIFPGDGDTDYNGKFKGKATLTADKSSNTAYMQLTSLTSVDSAVYLCARNVFDGYWLVYWGQGTLVTVSA VL: DIVLTQTTNPVTLGTSASISCRSSKSLLHSNGITYLYWYLQKPGQSPQLLIYQMSNLVSGVPDRFSSSGSGTDFTLRISRVEAEDVGVYYCAQNLELPYTFGGGTKLEIKR | binds | – |
| B-HH1 (as compared in FIG. 12; light chain not stated) (antibody, V domains shown) VH: QVQLVQSGAEVKKPGSSVKVSCKASGYTFSYSWMSWVRQAPGQGLEWMGRIFPGDGDTDYAQKFQGRVTITADKSTSTAYMELSSLRSEDTAVYYCARNVFDGYWLVYWGQGTLVTVSS VL: DIVMTQTPLSLPVTPGEPASISCRSSKSLLHSNGITYLYWYLQKPGQSPQLLIYQMSNLVSGVPDRFSGSGSGTDFTLKISRVEAEDVGVYYCAQNLELPYTFGGGTKVEIK | – | ~0.5 fold of chB-Ly1 |
| BHL11-KV1 (antibody, human IgG1, V domains shown, B-HL8 with the single mutation Glu1Gln) VH: QVQLVESGGGLVKPGGSLRLSCAASGFTFSYSWMNWVRQAPGKGLEWVGRIFPGDGDTDYNGKFKGRVTITADKSTSTAYMELSSLRSEDTAVYYCARNVFDGYWLVYWGQGTLVTVSS VL: DIVMTQTPLSLPVTPGEPASISCRSSKSLLHSNGITYLYWYLQKPGQSPQLLIYQMSNLVSGVPDRFSGSGSGTDFTLKISRVEAEDVGVYYCAQNLELPYTFGGGTKVEIKR | binds | – |
| BHL8-KV1 (antibody, human IgG1, V domains shown) VH: EVQLVESGGGLVKPGGSLRLSCAASGFTFSYSWMNWVRQAPGKGLEWVGRIFPGDGDTDYNGKFKGRVTITADKSTSTAYMELSSLRSEDTAVYYCARNVFDGYWLVYWGQGTLVTVSS VL: DIVMTQTPLSLPVTPGEPASISCRSSKSLLHSNGITYLYWYLQKPGQSPQLLIYQMSNLVSGVPDRFSGSGSGTDFTLKISRVEAEDVGVYYCAQNLELPYTFGGGTKVEIKR | binds | – |
